# Source: patent US20150344570A1 (published 2015)
# T1: FcγRIIb, extracellular domain with C-terminal His tag (human, UniProt P31994 43-217)
# T1 construct: extracellular domain; also called FcgRIIb; 2b; not shown: His tag at the C terminus
# T1 sequence (looked up): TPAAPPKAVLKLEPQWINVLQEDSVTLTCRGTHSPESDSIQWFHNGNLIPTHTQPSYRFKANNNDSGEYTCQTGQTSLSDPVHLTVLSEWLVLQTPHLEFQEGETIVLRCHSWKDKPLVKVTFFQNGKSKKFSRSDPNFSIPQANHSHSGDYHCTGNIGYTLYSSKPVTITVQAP
# T2: FcγRIIa H (FcγRIIa, allotype with His at position 131), extracellular domain with C-terminal His tag (human, UniProt P12318 34-217)
# T2 construct: extracellular domain; also called FcgRIIa H; 2aH; not shown: His tag at the C terminus
# T2 sequence (looked up): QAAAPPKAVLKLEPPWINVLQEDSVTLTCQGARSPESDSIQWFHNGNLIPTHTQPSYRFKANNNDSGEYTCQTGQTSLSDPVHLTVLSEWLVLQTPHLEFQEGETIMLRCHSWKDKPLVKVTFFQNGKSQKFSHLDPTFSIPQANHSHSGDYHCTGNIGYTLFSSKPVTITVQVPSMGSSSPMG
# Assays:
# [1] = target: T1, FcγRIIb, extracellular domain with …; test: SPR (Biacore), relative binding vs GpH7-A5/GpH7-B3/GpL16-k0
# [2] = target: T2, FcγRIIa H (FcγRIIa, allotype with His …); test: as above
# [3] = target: T2, FcγRIIa H (FcγRIIa, allotype with His …); test: SPR (Biacore); He/Con_2aH divided by He/Con_2b (FcγRIIb)
He/Con_2b [1],He/Con_2aH [2],He_2aH/2b (IIaH/IIb) [3],Binder
219 % of HeCon Ab (=100),71.7 % of HeCon Ab (=100),0.33 ratio,"GpH7-A5/GpH7-B3 variant L328_04F/GpL16-k0 (antibody, human IgG1, kappa, Heterodimerized anti-glypican-3 IgG1; mutation in one H chain only; also called He Ab) heavy 1: not shown heavy 2: not shown light: DIVMTQSPLSLPVTPGEPASISCQASESLVHSNRNTYLHWYLQKPGQSPQLLIYKVSNRFSGVPDRFSGSGSGTDFTLKISRVEAEDVGVYYCSQNTHVPPTFGQGTKVEIERTVAAPSVFIFPPSDEQLKSGTASVVCLLNNFYPREAKVQWKVDNALQSGNSQESVTEQDSKDSTYSLSSTLTLSKADYEKHKVYACEVTHQGLSSPVTKSFNRGEC"
114 % of HeCon Ab (=100),77.4 % of HeCon Ab (=100),0.68 ratio,"GpH7-A5/GpH7-B3 variant P331_07I/GpL16-k0 (antibody, human IgG1, kappa, Heterodimerized anti-glypican-3 IgG1; mutation in one H chain only; also called He Ab) heavy 1: not shown heavy 2: not shown light: DIVMTQSPLSLPVTPGEPASISCQASESLVHSNRNTYLHWYLQKPGQSPQLLIYKVSNRFSGVPDRFSGSGSGTDFTLKISRVEAEDVGVYYCSQNTHVPPTFGQGTKVEIERTVAAPSVFIFPPSDEQLKSGTASVVCLLNNFYPREAKVQWKVDNALQSGNSQESVTEQDSKDSTYSLSSTLTLSKADYEKHKVYACEVTHQGLSSPVTKSFNRGEC"
116 % of HeCon Ab (=100),87.1 % of HeCon Ab (=100),0.75 ratio,"GpH7-A5/GpH7-B3 variant P331_10E/GpL16-k0 (antibody, human IgG1, kappa, Heterodimerized anti-glypican-3 IgG1; mutation in one H chain only; also called He Ab) heavy 1: not shown heavy 2: not shown light: DIVMTQSPLSLPVTPGEPASISCQASESLVHSNRNTYLHWYLQKPGQSPQLLIYKVSNRFSGVPDRFSGSGSGTDFTLKISRVEAEDVGVYYCSQNTHVPPTFGQGTKVEIERTVAAPSVFIFPPSDEQLKSGTASVVCLLNNFYPREAKVQWKVDNALQSGNSQESVTEQDSKDSTYSLSSTLTLSKADYEKHKVYACEVTHQGLSSPVTKSFNRGEC"
91.6 % of HeCon Ab (=100),62.7 % of HeCon Ab (=100),0.68 ratio,"GpH7-A5/GpH7-B3 variant N325_14T/GpL16-k0 (antibody, human IgG1, kappa, Heterodimerized anti-glypican-3 IgG1; mutation in one H chain only; also called He Ab) heavy 1: not shown heavy 2: not shown light: DIVMTQSPLSLPVTPGEPASISCQASESLVHSNRNTYLHWYLQKPGQSPQLLIYKVSNRFSGVPDRFSGSGSGTDFTLKISRVEAEDVGVYYCSQNTHVPPTFGQGTKVEIERTVAAPSVFIFPPSDEQLKSGTASVVCLLNNFYPREAKVQWKVDNALQSGNSQESVTEQDSKDSTYSLSSTLTLSKADYEKHKVYACEVTHQGLSSPVTKSFNRGEC"
177 % of HeCon Ab (=100),79.7 % of HeCon Ab (=100),0.45 ratio,"GpH7-A5/GpH7-B3 variant N325_13S/GpL16-k0 (antibody, human IgG1, kappa, Heterodimerized anti-glypican-3 IgG1; mutation in one H chain only; also called He Ab) heavy 1: not shown heavy 2: not shown light: DIVMTQSPLSLPVTPGEPASISCQASESLVHSNRNTYLHWYLQKPGQSPQLLIYKVSNRFSGVPDRFSGSGSGTDFTLKISRVEAEDVGVYYCSQNTHVPPTFGQGTKVEIERTVAAPSVFIFPPSDEQLKSGTASVVCLLNNFYPREAKVQWKVDNALQSGNSQESVTEQDSKDSTYSLSSTLTLSKADYEKHKVYACEVTHQGLSSPVTKSFNRGEC"
110 % of HeCon Ab (=100),84.7 % of HeCon Ab (=100),0.77 ratio,"GpH7-A5/GpH7-B3 variant P331_04F/GpL16-k0 (antibody, human IgG1, kappa, Heterodimerized anti-glypican-3 IgG1; mutation in one H chain only; also called He Ab) heavy 1: not shown heavy 2: not shown light: DIVMTQSPLSLPVTPGEPASISCQASESLVHSNRNTYLHWYLQKPGQSPQLLIYKVSNRFSGVPDRFSGSGSGTDFTLKISRVEAEDVGVYYCSQNTHVPPTFGQGTKVEIERTVAAPSVFIFPPSDEQLKSGTASVVCLLNNFYPREAKVQWKVDNALQSGNSQESVTEQDSKDSTYSLSSTLTLSKADYEKHKVYACEVTHQGLSSPVTKSFNRGEC"
114 % of HeCon Ab (=100),86 % of HeCon Ab (=100),0.75 ratio,"GpH7-A5/GpH7-B3 variant P331_15Y/GpL16-k0 (antibody, human IgG1, kappa, Heterodimerized anti-glypican-3 IgG1; mutation in one H chain only; also called He Ab) heavy 1: not shown heavy 2: not shown light: DIVMTQSPLSLPVTPGEPASISCQASESLVHSNRNTYLHWYLQKPGQSPQLLIYKVSNRFSGVPDRFSGSGSGTDFTLKISRVEAEDVGVYYCSQNTHVPPTFGQGTKVEIERTVAAPSVFIFPPSDEQLKSGTASVVCLLNNFYPREAKVQWKVDNALQSGNSQESVTEQDSKDSTYSLSSTLTLSKADYEKHKVYACEVTHQGLSSPVTKSFNRGEC"
70.1 % of HeCon Ab (=100),48 % of HeCon Ab (=100),0.68 ratio,"GpH7-A5/GpH7-B3 variant N325_16H/GpL16-k0 (antibody, human IgG1, kappa, Heterodimerized anti-glypican-3 IgG1; mutation in one H chain only; also called He Ab) heavy 1: not shown heavy 2: not shown light: DIVMTQSPLSLPVTPGEPASISCQASESLVHSNRNTYLHWYLQKPGQSPQLLIYKVSNRFSGVPDRFSGSGSGTDFTLKISRVEAEDVGVYYCSQNTHVPPTFGQGTKVEIERTVAAPSVFIFPPSDEQLKSGTASVVCLLNNFYPREAKVQWKVDNALQSGNSQESVTEQDSKDSTYSLSSTLTLSKADYEKHKVYACEVTHQGLSSPVTKSFNRGEC"
235 % of HeCon Ab (=100),113 % of HeCon Ab (=100),0.48 ratio,"GpH7-A5/GpH7-B3 variant L328_20W/GpL16-k0 (antibody, human IgG1, kappa, Heterodimerized anti-glypican-3 IgG1; mutation in one H chain only; also called He Ab) heavy 1: not shown heavy 2: not shown light: DIVMTQSPLSLPVTPGEPASISCQASESLVHSNRNTYLHWYLQKPGQSPQLLIYKVSNRFSGVPDRFSGSGSGTDFTLKISRVEAEDVGVYYCSQNTHVPPTFGQGTKVEIERTVAAPSVFIFPPSDEQLKSGTASVVCLLNNFYPREAKVQWKVDNALQSGNSQESVTEQDSKDSTYSLSSTLTLSKADYEKHKVYACEVTHQGLSSPVTKSFNRGEC"
